Experimental data taken from article PMC4771738.

Assays:
[1] = biological target: GFP-dynactin 6 (UniProt O00399); assay: co-IP; HEK 293 cells co-transfected with myc-tagged Rab and GFP fusion; lysis in 50 mM Tris pH 7.4, 150 mM NaCl, 1% Triton X-100; GFP fusions precipitated on GBP agarose beads, room temperature 1.5 h; blot for myc and GFP; co-IP efficiency = co-IP / input
[2] = biological target: GFP-syntaxin 8 (UniProt Q9UNK0); assay: as above
Chain of UniProt Q9UNK0 (Q9UNK0 whole entry): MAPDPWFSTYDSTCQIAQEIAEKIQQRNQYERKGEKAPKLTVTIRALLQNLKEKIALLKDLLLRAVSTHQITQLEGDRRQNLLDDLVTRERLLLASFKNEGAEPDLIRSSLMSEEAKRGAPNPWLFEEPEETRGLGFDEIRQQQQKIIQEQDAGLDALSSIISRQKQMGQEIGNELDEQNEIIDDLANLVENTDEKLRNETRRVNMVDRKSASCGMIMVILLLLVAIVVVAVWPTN

Chain of UniProt O00399 (O00399 whole entry, the tested form may be a part): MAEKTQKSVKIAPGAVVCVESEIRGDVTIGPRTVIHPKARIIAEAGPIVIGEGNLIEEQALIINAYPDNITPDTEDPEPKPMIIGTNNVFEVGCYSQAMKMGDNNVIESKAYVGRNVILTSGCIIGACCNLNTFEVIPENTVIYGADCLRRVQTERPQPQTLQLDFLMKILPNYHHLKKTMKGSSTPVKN

Row | co-IP efficiency (co-IP divided by input) [1] | co-IP efficiency (co-IP divided by input) [2] | Substance
1 | 2% | 1.9% | myc-tagged GDP-locked Rab41/6d (from UniProt Q5JT25 1-222) (natural protein)
2 | 2.7% | 3.3% | myc-tagged GTP-locked Rab41/6d (from UniProt Q5JT25 1-222) (natural protein)
